Tests used:
[1] = biological target: T1, Gal3 peptides (SEQ ID NOs: 3-26) (Homo sapiens, UniProt P17931); test: Gal3 peptide library binding ELISA (epitope mapping); conditions: for binding to Gal3 Peptide 6: Peptide 6 (SEQ ID NO: 8); for binding to Gal3 Peptide 1: Peptide 1 (SEQ ID NO: 3), amino acids 1-20 of Gal3; for binding to Gal3 Peptide 7: Peptide 7 (SEQ ID NO: 9), amino acids 61-80 of Gal3
T1 construct: a library of 24 amino acid peptides representing portions of Gal3; purchased LifeTein custom order
Experimental: To identify the epitopes to which Gal3 antibodies with and without Gal3-INSR blocking activity bound, a library of 24 amino acid peptides representing portions of Gal3, depicted in FIG. 27, was produced and the ability of each peptide to bind Gal3 antibodies was evaluated by ELISA. At least 2 μg/ml of hGal3 peptide in 50 μl of PBS or 0.1 μg/ml of full-length human Gal3 protein (GenScript) and human Galectin-3 protein (Acro Biosystems, GA3-H5129) were diluted in PBS (Corning, 21-030-CM) to concentrations of at least 2 μg/ml or 0.1 μg/ml, respectively, and added to the wells of a 96-well ELISA plate (Thermo Fisher, 44-2404-21). After incubating the plate at 4° C. overnight, the plate was washed three times with PBST (PBS with 0.05% Tween 20 [VWR, 0777]). The plate was then blocked for an hour with 2% BSA (EMD Millipore, 126609) in PBST at room temperature with gentle rocking. Thereafter, the 2% BSA in PBST was discarded and human Galectin-3 hybridoma supernatants or antibodies were diluted in 2% BSA in PBST to concentrations of at least 0.1 μg/ml and added to the wells. The plate was incubated for an hour at room temperature with gentle rocking and then washed three times with PBST. Afterwards, Goat Anti-Mouse IgG-HRP (Jackson ImmunoResearch, 115-036-1461) or Goat Anti-Rat IgG HRP (Abcam, ab205720) diluted in 2% BSA in PBST (1:4000) were added to the wells. The plate was incubated for 30 minutes to 1 hour at room temperature with gentle rocking and then washed three times with PBST. TMB substrate (Thermo Scientific, 34029) was then added to each well. The reaction was stopped with 1M HCl (JT Baker, 5620-02) and read using a plate reader (Molecular Devices) at absorbance of 450 nm.
Human Gal3 peptides (LifeTein, custom order) and human Gal3 proteins (R&D Systems, 8259-GA; TrueBinding, QCB200349) were diluted in PBS (Corning, 21-030-CM) to concentrations of at least 100 μg/mL (peptides) or 1 μg/mL (proteins), and added to the wells of several 96-well ELISA plates (Thermo Fisher, 44-2404-21). After incubating the plates at 4° C. overnight, the plates were washed three times with PBST (PBS with 0.05% Tween 20 [VWR, 0777]). The plates were then blocked for an hour with 2% BSA (EMD Millipore, 126609) in PBST at room temperature with gentle rocking. Thereafter, the 2% BSA in PBST was discarded and Gal3-binding antibodies (reformatted hIgG4 [S228P]) were diluted in 2% BSA in PBST to concentrations of 5 μg/mL and added to the wells. The plates were incubated for an hour at room temperature with gentle rocking and then washed three times with PBST. Afterwards, Peroxidase AffiniPure F(ab′)2 Fragment Goat Anti-Human IgG (H+L) polyclonal antibody (Jackson ImmunoResearch, 109-036-003), was diluted in 2% BSA in PBST (1:4000) and added to the wells. The plates were incubated for 1 hour at room temperature with gentle rocking and then washed three times with PBST. TMB substrate (Thermo Scientific, 34029) was then added to each well. The reaction was stopped with 1M HCl (JT Baker, 5620-02) and read using a plate reader (Molecular Devices) at absorbance of 450 nm.

[2] = biological target: T2, human Gal3 (Homo sapiens, UniProt P17931); test: Antibody binning assays (competition for binding to Gal3); conditions: binning per Examples 3 and 18
T2 construct: His; purchased AcroBio GA3-H5129
Experimental: To determine whether Gal3-binding antibodies with Gal3-INSR blocking activity bind to the same or overlapping regions of the Gal3 molecule, antibody binning assays were performed to assess the ability of antibodies to simultaneously bind Gal3. Amine-reactive probes were loaded onto a Gator biosensor (Probe Life, Palo Alto, Calif.), equilibrated in dH20 for 60 seconds, dipped into 100 μl EDC 0.2M/NHS 0.05M activation buffer for 30 seconds, then dipped into a solution of […] human Gal3-His in 10 mM NaOAc buffer, pH 5 until binding was saturated, and quenched in 1 M ethanolamine pH 8.5 for 300 seconds. Following Gal3-His loading, tips were dipped in 20 μg/mL saturating antibody, then successively dipped into 5 μg/mL competing antibody.
The epitope binning assay was done in a sandwich format on the high-throughput SPR-based Carterra LSA unit (CarterraBio, Salt Lake City, Utah). First, the purified antibodies were diluted to 10 μg/ml concentration in 10 mM NaOAc (pH 5.0) and then were covalently coupled via amine group to HC200M chip activated by EDC and S-NHS to immobilize antibodies to different positions of a 384-spot array. One hundred thirty-eight binning cycles were run on the array of immobilized antibodies. In each cycle, first, human Gal3 (AcroBio GA3-H5129) was injected over the entire array to bind to different antibodies (primary antibody), followed by one antibody (secondary antibody) selected among the panel of 150 anti-GAL3 antibodies tested. At the end of each cycle, the array was regenerated by 10 mM Glycine (pH 2.0) to remove bound antigen and secondary antibody from the array. The data analysis was done using the Epitope software by CarterraBio.

T2 sequence (P17931 whole entry): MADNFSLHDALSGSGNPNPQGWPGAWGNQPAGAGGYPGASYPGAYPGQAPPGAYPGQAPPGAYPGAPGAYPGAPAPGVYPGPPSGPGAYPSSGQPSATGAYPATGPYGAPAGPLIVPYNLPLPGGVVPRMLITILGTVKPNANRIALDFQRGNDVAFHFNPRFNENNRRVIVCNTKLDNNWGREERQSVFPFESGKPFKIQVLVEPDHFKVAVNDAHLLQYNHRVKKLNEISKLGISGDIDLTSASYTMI

| Molecule | binding to Gal3 Peptide 6 ([1]; amino acids 51-70 of Gal3) | binding to Gal3 Peptide 1 [1] | binding to Gal3 Peptide 7 [1] | also measured |
| --- | --- | --- | --- | --- |
| TB006: anti-Gal3 antibody (antibody, V domains shown) VH: QVQLVQSGAEVKKPGASVKVSCKASGYSFTNYYMHWVRQAPGQRLEWMGWIYPGSGNTNYNEKFQGRVTITADTSASTAYMELSSLRSEDTAVYYCSTAPGGFDVWGQGTTVTVSS VL: DIVMTQTPLSLSVTPGQPASISCKSSKSLLHSDGITYLYWYLQKPGQSPQLLIYRMSNLASGVPDRFSGSGSGTDFTLKISRVEAEDVGVYYCAQMLEFPLTFGQGTKLEIK |  |  |  | binding to Gal3 Peptide 6 ([1]; amino acids 51-70 of Gal3, listed as IMT006 (TB006)): bind and bound |
| 13A12.2E5: anti-Gal3 monoclonal antibody (antibody, V domains shown) VH: QIQLVQSGPELKKPGETVKISCKTSGYKFKTYVMSWVKQAPGKALKWMGWINTYSGVPTYADDFKGRFAFSLETSASTAYLEIINLKNEDTATYFCARDGNYGDPMDYWGQGTSVTVSS VL: DVVMTQTPLTLSVAIGQPASISCKSSQSLLYTNGKTYLNWLLQRPGQSPKRLIYLLSKLDSGVPDRFSASGSGTDFTLKISRVEAEDLGVYYCLQSTHFPLTFGAGTKLEMK | bind and bound |  |  | binding to Gal3 Peptide 4 ([1]; Peptide 4 (SEQ ID NO: 6), amino acids 31-50 of Gal3): bind |
| 19B5.2E6: anti-Gal3 monoclonal antibody (antibody, V domains shown) VH: QIQLVQSGPELKKPGETVKISCKASGYTFTTYAMSWVKQAPGKGLKWMGWINTYSGVPTYADDLKGRFAFSLETSASTAYLQINNLKNEDTATYFCARGPYAMDYWGQGTSVTVSS VL: DIQMTQTTSSLSASLGDRVTISCSASQGINNYLNWYQQKPDGTVKLLIYYASSLHSGVPSRFSGSGSGTDYSLTISNLEPEDIATYYCQQYSQVPYTFGSGTKLEIK |  | bind and bound | bind and bound | epitope bin (competitive binding to Gal3) [2]: bin 3 |
| 20D11.2C6: anti-Gal3 monoclonal antibody (antibody, V domains shown) VH: EVQLQQSGPELVKPGASVKISCKASGYTFTDFYINWVKQSHGKSLEWIGDINPKNGGINYNPKFKIKATLTVDKSSSTSYMDLRGLTSEDSAVYYCTSGYGFPYWGQGTLVTVSA VL: DIQMNQSPSSLSASLGDTITITCRASQNIYIWLSWYQQKPGNIPKLLIYKASNLHTGVPSRFSGSGSGTDFTLTISTLQPEDIATYFCLQGQSYPLTFGAGTKLEMK | bound | bind and bound | bind and bound | epitope bin (competitive binding to Gal3) [2]: bins 5 |
| F846C.1H5: anti-Gal3 antibody (antibody, V domains shown) VH: EVQLLESGGGLVKPGGSLKLSCAASGFTFSSYAMSWVRQTPEKRLEWVASISSGGDTYYPDSVKGRFTISRDNARNILYLQMSSLRSEDTAMYYCASYGNSLFDYWGQGTTLTVSS VL: DVVMTQTPLSLPVSLGDQASISCRSSQSLVHNSGNTYLHWYLQRPGQSPNLLIYKVSNRFSGVPDRFSGSGSGTDFTLKISRVAAEDLGVYFCSQSTHVPPTFGGGTKLEIK |  | bind and bound |  |  |
| F846C.1B2: anti-Gal3 antibody (antibody, V domains shown) VH: QIQLVQSGPELKKPGETVKISCKASGYTFTNYGMNWVKQAPGKGLKWMGWINTYTGEPSYADDFKGRFAFSLETSASTAYLQINNLKNEDMATYFCARWGGYAGDYYAMDFWGQGTSVTVSS VL: NIWLTQSPSSLAVSAGEMVTMTCKSSQSVLYSSNQKNYLAWYQQKPGQSPKLLIYWASTRESGVPDRFTGSGSGTDFSLTISSVQAEDLAVYYCHQYLSSLTFGAGTKLELK | bind and bound |  | bind and bound | binding to Gal3 Peptide 5 ([1]; Peptide 5 (SEQ ID NO: 7)): bind |

The next lines start with results.

| binding to Gal3 Peptide 6 ([1]; amino acids 51-70 of Gal3) | binding to Gal3 Peptide 1 [1] | binding to Gal3 Peptide 7 [1] | Molecule | also measured |
| --- | --- | --- | --- | --- |
|  | bind and bound | bind and bound | F847C.10B9: anti-Gal3 antibody (antibody, V domains shown) VH: QIQLVQSGPEVKKPGETVKISCKASGYIFTNYGMNWVKQAPGKGLKWMGWINTYTGEPTYTDDFKGRFAFSLETSASTAYLQINNLKNEDTATYFCAKFGNYVGAMDYWGQGTSVTVSS VL: DIRMTQSPSSLSASLGDTITITCHASQNINVWLSWYQQKPGNIPKLLIYKASNLHTGVPSRFSGSGSGTGFTLTISSLQPEDIATYYCQQGQSYPYTFGGGTKLELK |  |
|  | bind and bound | bind and bound | F847C.26F5: anti-Gal3 antibody (antibody, V domains shown) VH: QIQLVQSGPEVKKPGETVKISCKASGYIFTNYGMNWVKQAPGKGLKWMGWINTYTGEPTYTDDFKGRFAFSLETSASTAYLQINNLKNEDTATYFCAKFGNYVGAMDYWGQGTSVTVSS VL: EIKMNQSPSSLSASLGDTITITCHASQNINVWLSWYQQKPGNIPKLLIYKASNLHTGVPSRFSGSGSGTGFTLTISSLQPEDIATYYCQQGQSYPYTFGGGTKLELK |  |
|  | bind and bound | bind and bound | F847C.12F12: anti-Gal3 antibody (antibody, V domains shown) VH: QIQLVQSGPELKKPGETVKISCKASGYTFTNYGMNWVKQAPGKGLKWMGWINTYTGEPTYVDDFKGRFAFSLETSASTAYLRINNLKNEDTATYFCAKFGNYVGAMDYWGQGTSVTVSS VL: DIQVIQSPSSLSASLGDTITITCHASQNINVWLSWYQQKPGNIPKLLIYKASNLHTGVPSRFSGSGSGTGFTLTISSLQPEDIATYYCQQGQSYPYTFGGGTKLELK |  |
| bind and bound |  |  | F846C.2H3: anti-Gal3 antibody (antibody, V domains shown) VH: QIQLVQSGPELKKPGETVKISCKASGYTFTNYGMNWVKQAPGKGLKWMGWINTYTGEPSYADDFKGRFAFSLETSASTAYLQINNLKNEDMATYFCARWGGYDGDYYAMDYWGQGTSVTVSS VL: NIMMTQSPSSLAVSAGEKVTMSCKSSQSVLYSSNQKNYLAWYQQKPGQSPKLLIYWASTRESGVPDRFTGSGSGTDFTLTISSVQPEDLAVYYCHQYLSSLTFGAGTKLELK |  |

From patent publication US20230094463A1, “ANTIBODIES THAT DISRUPT THE INTERACTION OF GAL3 AND INSULIN RECEPTOR OR INTEGRINS AND METHODS OF USE THEREOF” (TrueBinding, Inc., priority 2019, published 2023)
